The record followed here is the nanobody polyreactivity screen of Harvey et al. (2022).

A short description of the data set: yeast display, Sf9 membrane polyspecificity reagent, FACS + sequencing; frameworks hold sequencing errors. In a few lines: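 Nanobodies from a synthetic yeast display library (Saccharomyces cerevisiae BJ5465), induced 36–48 hours with galactose, were stained 1 hour at 4 °C with 10% biotinylated, detergent-solubilized Sf9 membrane reagent, enriched on streptavidin microbeads, then FACS-sorted. Anti-HA (expression) and streptavidin (reagent binding) fluorescence set low and high (top ~1%) gates. Polyreactivity labels come from the gate of origin. Genes were colony-PCR amplified, MiSeq 2 × 250 sequenced and filtered by CDR length.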
For the sequence “QVQMQESRGGLVQAGGSLRLSCAASGYISYLDFMGWYRQAPGKERELVAGITTGATTNYADSVKGRFTISRDNGKNIVYQQMNSLKPEDTAVYFCAVIGGDTRGHPYWGQGTQLTVSS”, the “polyreactivity (PSR sort gate)” value is listed as “low polyreactivity”. “QVQPQESAGGLVQAGGSLLQSSAASAYIFPYYSMGWYRQAPGKERGLVACIAAGTTTNYADSVKGRFTISRDNAKNTVYLQMKSLKPEDAAVYYCAALKAFNTGHWYWGQGTQVTVSS”: the “polyreactivity (PSR sort gate)” value is recorded as “low polyreactivity”. In the case of “QVQPQESGGGLVQAGGSLRLRCAASGTIFAFQTMGSYRQAPGKERELVASITYGSSTNYADSVKGRFTISRDNAKNTVYLQMNSLKPEDTAVFYCAVPQAQYYYDYWGQGTQVTVSS”, the “polyreactivity (PSR sort gate)” value is given as “high polyreactivity”. “QVQPVESGGGLVQAGGSLRLSCAASASTFYYYAMGWSRQAPGKERELVASITTGGGSTYYADSVKGRFTISRDNAKKTVYLQMNSLNPEDTAVYYCNAGRYGSNLEYWGQGTQVTVSS”: the “polyreactivity (PSR sort gate)” value was “low polyreactivity”. Take “QVQPVESGGGLVQAGGSLRLSCADSGSIIYYNAMGWYRQAPGKEREFVAAITSSGGSTYADSVKGRFTISRDNGKNTVYIQMNSMKPEDTAVYYCATVAHGLLSGSGYIYAYDYWGQGTQVTVSS”: the “polyreactivity (PSR sort gate)” value is listed as “low polyreactivity”. In the case of “QVQQQESGGGLEQAGGSLRLSCAASGTIFQLTVMGRYRQAPGKERELVASIDYGGNTNYADSVKGRFTISRDNAKKTVYLQMNSLKPEDTAVYYCAASSDSWTTHPYWGQGTQVTVSS”, the “polyreactivity (PSR sort gate)” value was “low polyreactivity”. Turning to “QVQQQESGGGLVQAGGSLRLSCAASGNIFRFTRMGWYRQGPGQVREFVAGIGDGSTTYYADSVKGRFTISRDNAKNTVHLQMNSQKPEDTAVYSCAVGDSGFVHHPYWGQGTQVTVSS”, the “polyreactivity (PSR sort gate)” value is on record as “high polyreactivity”. For the sequence “QVQQQESGGGLVQAGGSLRLSCAASGTIFQLTVMGRYRQASGKERELVASIDYGGNTNYADSVKGRFTISRDNAKNTVYLQMNSLKPEDTAVYFCAASSDSWTTHPYWGQGTQVTVSS”, the “polyreactivity (PSR sort gate)” value is on record as “low polyreactivity”. As to “QVQQQESGGGLVQASGSLRLSCAASGNIFPDYVMGWYRQGPGQEREFVANITGGSTTNYADSVKGRFSISRDNAKNTVYLQMNCLKQEDTAVYYCAVNFGTVVLYLYWGQGTQVTVSS”, the “polyreactivity (PSR sort gate)” value is listed as “high polyreactivity”. As to “QVQQQESGGGQVQAGGSLRLSCAASGTIFLYAFLGRYRQAPGKERELVAAIDVGTTTNYADSVKGRFTIRRDNANNTVYLQMNSLKPEDTAVYYCAATLGYLDDLGYWGQGTQVTVSS”, the “polyreactivity (PSR sort gate)” value was “low polyreactivity”. Regarding “QVQQVESGGGLVQAGGSLRLSCAASGTFGYYAMGWYRQAPGKERELVAGITWSGGSTYYADSVKGRFTISRDNAKNTVYLQMNSLKPEDTAVYYCATSSYTGYWGQGTQVTVSS”, the “polyreactivity (PSR sort gate)” value is “low polyreactivity”.

For the sequence “QVQREESGGGLVQAGGSLRLSCPASGITFWGYVMGWYRQAPGKERELVAAISSSGGRTYYADSVKGRFTISRDNAKNTVYLQMNSMKPEDTAVYYCAARFLYANGDSVDYDYWGQGTQVTVSS”, the “polyreactivity (PSR sort gate)” value is on record as “high polyreactivity”. For “QVQRVESAAGLVQAGGSLRLSCAASGFIIVYYSMGWYRQAPGKERELVAAISRRGGSTYYADSVKGRFTISRDNAKNTVYLQMNSLKPEDTAVYYCNAVNVLAPSRGRRYDYWGQGTQVTVSS”, the “polyreactivity (PSR sort gate)” value is “high polyreactivity”. Turning to “QVQRVESAGGLVQAGVSLRLSCAASGITFASNTMGWYRQAPGKARELVAAITRGDNTYYADSVKGRFTISRDNAKNTVYLHMNSLKPEDTAVYYCATEGYEIQYEHDYWGEGTQVTVSS”, the “polyreactivity (PSR sort gate)” value is recorded as “low polyreactivity”. The entry for “QVQRVESAGRLVQAGGSLRLSCAPSGYTFYGYAMGWYRQAPGKESELVAAISGSGGSTYYADSVKGRFTMSRDNAKNTVYLQMNSLIPEDTAVYYCNKARYAIYRGDGYDYWGQGTEVTVSS” is “high polyreactivity”.

Consider “QVQRVESGGALVQAGGSLRLSCAASGSIIGINAMGWYRPAPGKERELVAAINGGGSTYYADSVKGRFTISRDNAKNTVYLQMHSLKPEDTAVYYCAAEWGTSWYDYRGQGTQVTVSS”, for which the “polyreactivity (PSR sort gate)” value is on record as “low polyreactivity”. Consider “QVQRVESGGGLFQAGGSLRLSCAASGSTFGYYAMGWYRQAPGKERELVPAISGSGTSTNYADSVKGRITISRDNAKNTVYLQMNSLKPEDTAVYYCATRYRYTGGGYYYRGQGTQVTVSS”, for which the “polyreactivity (PSR sort gate)” value is on record as “low polyreactivity”. For “QVQRVESGGGLVQAGGRLRLSCAASASTLYSYAMGWNRQAPGKEREFVATISQIGVRTYYADSVKGRFTISRDNAKNTVYLQMNSLKPEDTAVYYCAAGYRFTTYLVYNYWGQGTQVTVSS” the value was “high polyreactivity”. On to “QVQRVESGGGLVQAGGSHPLSCAASGITLRYYAMGWYRQAPGKERELVAAISGRGGGTYYADSVKGRFTISRDNAKNTVYLQMNSLKPEDTAVYYCNAVGQQQVEYEYWGQGTQVTVSS”, for which the “polyreactivity (PSR sort gate)” value is “high polyreactivity”. In the case of “QVQRVESGGGLVQAGGSHRLSCAASGSIFVVYTMGWYRPAPGKERELVAAITQNGGSSTYYADSVKGRFTISRDNAKNTVYLQMNSLKPEDTAVYYCNKDILSPVVRIFKYGYDMDYWGQGTQETVSS”, the “polyreactivity (PSR sort gate)” value was “low polyreactivity”. The entry for “QVQRVESGGGLVQAGGSLGLSCAASGFTFIKYAMGWYRQAPGKEREFVASITYRGGSTYYADSVKGRLTISRDNAKNTVYLQMNSLKPEDTAVYYCAAGGPGRRYRVDYWGQGTQVTVSS” is “high polyreactivity”.

For “QVQRVESGGGLVQAGGSLLLSCAPSGSIFSDNSMGWYRQAPGKERELVAAITSGGDTKYADSVKGRFTISRDNAKNTVYLQMNSLKPEDTAFYYCAAGIRYQASFDSWGQGTQVTVSS”, the “polyreactivity (PSR sort gate)” value was “low polyreactivity”. In the case of “QVQRVESGGGLVQAGGSLRISCAASGRTFRKYAMGWYRQARGKERELGAAMSWSGGSTYYANSVKGRFPISRDKPKNTVYLQMNSLKPEETAVYYCASDVDRFYTYKYDYWGQGTQVTVSS”, the “polyreactivity (PSR sort gate)” value is recorded as “low polyreactivity”.

“QVQRVESGGGLVQAGGSLRLSCAASGFIISWYAMGWSRQAPGKERELVAAISSGGSTTYADSVKGRFTISRDNAKNTVSLQMNSLKPEDTAVYYCNADQVYGYNYWGQGTQVTVSS”: the “polyreactivity (PSR sort gate)” value is “high polyreactivity”. For “QVQRVESGGGLVQAGGSLRLSCAASGFILNQYAMGWYRQAPGKASELVAAISNGGSTNYADSVKGRFTISRDNAKNTVYLQMNSLKPEDTAVYYCAKDQSLTYSSLWGYDYWGQGTQVTVSS” the value was “low polyreactivity”; for “QVQRVESGGGLVQAGGSLRLSCAASGFTFTDYAMGWYRQAPGKERELVAAITIGGGRTYYADSVKGRFTISRDNAKNTVYLQMNSLKPEDTAVYYCNARYQVPYGYWGQGTQVTVSS”, “low polyreactivity”.

Regarding “QVQRVESGGGLVQAGGSLRLSCAASGGIVSAYAMGWYRQAPGKEREFVASISRRGGSTYYADSVKGRFTISRDNAKNTVYFQMNSLKREDTAVSYCNARKYFEKSREYWGQGTQVTVSS”, the “polyreactivity (PSR sort gate)” value is given as “high polyreactivity”. Take “QVQRVESGGGLVQAGGSLRLSCAASGIFYWYGMGWYRQAPGKDRELVASITGGGRTYYADSVKGRFTISRDNAKNTVYLQMNSLKPEDTAVNYCATRYWGGLPRRWYDYWGQGTQVTVSS”: the “polyreactivity (PSR sort gate)” value is “high polyreactivity”. “QVQRVESGGGLVQAGGSLRLSCAASGIIFPHNAMGWYRQAPGKERELVATISRSGARTYYADSVKGRFTISRDNAKNTVYLQMNSLKPEDTAVYYCAVQRLVYVYGAYDYWGQGTQVTVSS”: the “polyreactivity (PSR sort gate)” value is “high polyreactivity”.

Regarding “QVQRVESGGGLVQAGGSLRLSCAASGLTFPSYAMGWYRQAPGKERELVATISNGSSTYYADSVKGRFTISRDNAKNTVYLQLNSLKPEDTAVYYCAKDYYYSRNPLYGHDYWGQGSQVTVSS”, the “polyreactivity (PSR sort gate)” value was “low polyreactivity”. As to “QVQRVESGGGLVQAGGSLRLSCAASGRIFRGNAMGWYRQAPGKERELVAAITSSGDSTFYADSVKGRFTISRDNANNTVYLQMNSLKPEDTAVYYCNALVQGKEYYWGQGTQVTVSS”, the “polyreactivity (PSR sort gate)” value is on record as “high polyreactivity”.

In the case of “QVQRVESGGGLVQAGGSLRLSCAASGRTFGPNAMGCYRQSPGKERELVAAITSGGRTYYADSVKGRFTISRDNAKNTVYLQMNSLKPEDTAVYYCAASYRWRSSGKGKYDYWGQGTQVTVSS”, the “polyreactivity (PSR sort gate)” value is “high polyreactivity”. Take “QVQRVESGGGLVQAGGSLRLSCAASGRTFGYNAMGWYRQAPGKERELVAAISSSGGSTYYADSVKGRFTISRDNAKNTVYLQMNSLKPEDTAVYYCATQGYSWAHGSDYWGQGTQVTVSS”: the “polyreactivity (PSR sort gate)” value was “low polyreactivity”. With “QVQRVESGGGLVQAGGSLRLSCAASGRTLRYKGLYRQAPGKERELVAAITTGVSTNYADSVKGRFTISRDNAKNTVYLQMNSLKPEDTAVYYCAARARGTVYQYYYWGQGTQVTVSS”, the “polyreactivity (PSR sort gate)” value was “high polyreactivity”.

With “QVQRVESGGGLVQAGGSLRLSCAASGSIFEGYAMGWYRQAPGKQRELVARITSDDDSTYYADSVKGRFTISRDNAKFSVYLQMNSLIPEDTAVYYCNADYYWTSLAMDSWGQGTQVTVCS”, the “polyreactivity (PSR sort gate)” value is “low polyreactivity”. Consider “QVQRVESGGGLVQAGGSLRLSCAASGSIFVFYAMGWYRQAPGKERELVATISSVGRTNYADSVKGRFTISRDNAKNTVYLQMNSLKPEDTAVYYCAARRFRGSYYWGQGTQVTVSS”, for which the “polyreactivity (PSR sort gate)” value was “high polyreactivity”. With “QVQRVESGGGLVQAGGSLRLSCAASGSIFWRNAMGWSRQAPGKERELVAAITSGGSTDYADSVKGGFRISRDTAKNTVYLQIHSLKPEDPAVYYCAAVTWSGWDGYYYWGQGTQVTVSS”, the “polyreactivity (PSR sort gate)” value was “low polyreactivity”. In the case of “QVQRVESGGGLVQAGGSLRLSCAASGSIYRWNARGWSRQATGKERELVAVINSSGGSTYYADSVKGRFTISRDNAKNTVYLQMNSLKPEDTAVYYCAADLFLECSSQYAPNWWPDGWNTYRLLGGYWGQGTQVTVSS”, the “polyreactivity (PSR sort gate)” value is listed as “low polyreactivity”. On to “QVQRVESGGGLVQAGGSLRLSCAASGSTFARYAMGWYRQAPGKEREFVAAITYSGGRTYYADTVKGRFTISRDNAKNTVYLQMNSLKPEDTAVYYCAARRRYRYDYWGQGTQVTVSS”, for which the “polyreactivity (PSR sort gate)” value is “high polyreactivity”. As for “QVQRVESGGGLVQAGGSLRLSCAASGSTFDRNAMGWYRQAPGKERELVAAIDYSGGSTYYADSVKGRFTISRDNAKNTVYLQMNSLKPEDTAVYYCAARVDGPDYSDGNYWGQGSQVTVSS”, the “polyreactivity (PSR sort gate)” value is “low polyreactivity”. Take “QVQRVESGGGLVQAGGSLRLSCAASGSTFEYYAMGWYRQAPGKERELVAAISGGGSTNYADSVKGRFTISRDNAKNTVYLQMNSLTPEVTAVYYCNASDVGSRTSNYWGQGTQVTVSS”: the “polyreactivity (PSR sort gate)” value was “low polyreactivity”.
